Test results: patent US20230365701A1 (Pfizer, published 2023)

Assays:
human LTBR protein = target: T1, human LTBR protein (human, UniProt P36941 31-227, limits assumed); assay: not stated at this place (SPR by the heading before paragraph 293, where the value is repeated); human LTBR
T1 construct: Protein used for the KD, binning and crystallization; In the crystal the entire extracellular domain was ordered; also called lymphotoxin beta receptor; TNFR3

[1] = target: chimeric LTBR with a human extracellular domain and mouse transmembrane and intracellular domains, on CT26 … (human; mouse); assay: cell-based or functional assay
chimeric LTBR with a human extracellular domain and mouse transmembrane and intracellular domains, on CT26 … (human; mouse), sequence (chain, as listed by the source mutant limits assumed): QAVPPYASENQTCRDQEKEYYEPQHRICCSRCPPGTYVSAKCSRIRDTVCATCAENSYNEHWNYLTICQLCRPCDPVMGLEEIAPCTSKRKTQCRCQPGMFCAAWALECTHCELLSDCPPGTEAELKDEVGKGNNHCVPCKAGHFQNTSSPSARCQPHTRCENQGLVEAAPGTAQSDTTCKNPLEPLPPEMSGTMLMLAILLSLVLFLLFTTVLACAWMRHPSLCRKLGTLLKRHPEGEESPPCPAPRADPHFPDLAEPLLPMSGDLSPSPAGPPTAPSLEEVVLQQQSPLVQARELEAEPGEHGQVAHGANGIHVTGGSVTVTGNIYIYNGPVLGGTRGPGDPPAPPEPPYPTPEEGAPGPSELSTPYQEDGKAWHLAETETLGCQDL

[2] = target: T2, human LTBR on cells (endogenous on HUVEC, HT29, primary human fibroblasts and moDC; LTBR-expressing HEK293) (human, UniProt P36941 31-435); assay: cell-based or functional assay
T2 sequence (P36941 31-435 limits assumed): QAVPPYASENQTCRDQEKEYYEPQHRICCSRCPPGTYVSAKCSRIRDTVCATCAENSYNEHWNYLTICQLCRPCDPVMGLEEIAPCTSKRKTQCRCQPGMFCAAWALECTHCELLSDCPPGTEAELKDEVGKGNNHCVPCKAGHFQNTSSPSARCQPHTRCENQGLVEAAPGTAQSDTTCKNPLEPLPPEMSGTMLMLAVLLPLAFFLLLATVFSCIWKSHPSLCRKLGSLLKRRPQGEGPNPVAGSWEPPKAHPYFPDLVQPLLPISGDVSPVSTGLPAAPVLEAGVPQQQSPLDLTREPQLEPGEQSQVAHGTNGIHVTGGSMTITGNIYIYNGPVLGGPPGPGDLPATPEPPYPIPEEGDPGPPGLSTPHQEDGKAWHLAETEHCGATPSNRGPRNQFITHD

[3] = target: cynomolgus monkey LTBR on primary cynomolgus monkey fibroblasts (cynomolgus monkey, UniProt P36941 1-435 (human entry)); assay: cell-based or functional assay
cynomolgus monkey LTBR on primary cynomolgus monkey fibroblasts, sequence (P36941 other isoform, or with tags, fused parts or gaps limits assumed): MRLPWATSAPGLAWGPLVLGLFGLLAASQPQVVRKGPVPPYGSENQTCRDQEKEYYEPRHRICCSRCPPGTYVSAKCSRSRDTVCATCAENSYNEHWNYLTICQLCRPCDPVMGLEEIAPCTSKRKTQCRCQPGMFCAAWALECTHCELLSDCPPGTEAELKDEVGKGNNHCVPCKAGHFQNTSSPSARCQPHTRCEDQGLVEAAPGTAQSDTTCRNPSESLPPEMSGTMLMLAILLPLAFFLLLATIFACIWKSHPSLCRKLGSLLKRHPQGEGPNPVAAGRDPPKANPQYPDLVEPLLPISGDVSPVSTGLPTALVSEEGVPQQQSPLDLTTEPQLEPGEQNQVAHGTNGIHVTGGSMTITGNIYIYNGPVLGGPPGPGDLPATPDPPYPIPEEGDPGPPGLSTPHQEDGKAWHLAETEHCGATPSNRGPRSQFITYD

[4] = target: T2, human LTBR on cells (endogenous on …); assay: flow cytometry with AF647-labeled antibody on HUVEC (endogenous human LTBR), 1.5 hours on ice
Protocol: (§1) Endogenous human LTBR binding: 1E01 binding to endogenous LTBR on human endothelial cells (human umbilical vein endothelial cells (HUVEC)) and tumor cells (HT29 human colorectal carcinoma cells) was assessed in a flow cytometry-based assay using AF647-labeled antibody and Quantbrite™ beads. Cells were incubated with antibody for 1.5 hours on ice prior to endpoint analysis. Results confirmed the binding of 1E01 to endogenous human LTBR.

[5] = target: T2, human LTBR on cells (endogenous on …); assay: flow cytometry with AF647-labeled antibody on HT29 cells (endogenous human LTBR), 1.5 hours on ice
Protocol: as §1

T1 sequence (P36941 31-227 limits assumed): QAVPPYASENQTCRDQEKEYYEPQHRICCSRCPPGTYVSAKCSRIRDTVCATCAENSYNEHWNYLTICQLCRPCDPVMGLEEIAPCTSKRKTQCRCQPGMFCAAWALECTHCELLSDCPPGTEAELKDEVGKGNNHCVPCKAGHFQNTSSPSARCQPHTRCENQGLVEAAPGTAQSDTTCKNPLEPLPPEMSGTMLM

Binder | Kd (human LTBR protein) | NFkB Activation, EC50 (ug/mL), CT26 hEC-mTM-mIC NFkB luciferase reporter cells [1] | CXCL10 Release, EC50 (ug/mL), primary human dermal fibroblasts [2] | CXCL10 Release, EC50 (ug/mL), primary cyno fibroblasts [3] | EC50 [4] | EC50 [5]
anti-LTBR clone 1E01 (Fab clone "1E01") (Fab, V domains shown, Only VH and VL are tied to the clone; also called 1E01 antibody) VH: QVQLVQSGAEVKKPGSSVKVSCKASGGTFSSYFWSWVRQAPGQGLEWMGRFYSGGSANYNPSLKERVTITADESTSTAYMELSSLRSEDTAVYYCARERRGYSGGFEIWGQGTLVTVSS VL: not shown | 115 nM |  |  |  |  | 
1E01 tetravalent antibody (antibody, human IgG1, kappa, Extended heavy chain VH-CH1-linker-VH-CH1-hinge-CH2-CH3; AF647-labeled in the flow cytometry assay; also called tetravalent 1E01) heavy: QVQLVQSGAEVKKPGSSVKVSCKASGGTFSSYFWSWVRQAPGQGLEWMGRFYSGGSANYNPSLKERVTITADESTSTAYMELSSLRSEDTAVYYCARERRGYSGGFEIWGQGTLVTVSSASTKGPSVFPLAPSSKSTSGGTAALGCLVKDYFPEPVTVSWNSGALTSGVHTFPAVLQSSGLYSLSSVVTVPSSSLGTQTYICNVNHKPSNTKVDKKVEPKSCGGGGSQVQLVQSGAEVKKPGSSVKVSCKASGGTFSSYFWSWVRQAPGQGLEWMGRFYSGGSANYNPSLKERVTITADESTSTAYMELSSLRSEDTAVYYCARERRGYSGGFEIWGQGTLVTVSSASTKGPSVFPLAPSSKSTSGGTAALGCLVKDYFPEPVTVSWNSGALTSGVHTFPAVLQSSGLYSLSSVVTVPSSSLGTQTYICNVNHKPSNTKVDKKVEPKSCDKTHTCPPCPAPEAAGAPSVFLFPPKPKDTLMISRTPEVTCVVVDVSHEDPEVKFNWYVDGVEVHNAKTKPREEQYNSTYRVVSVLTVLHQDWLNGKEYKCKVSNKALPAPIEKTISKAKGQPREPQVYTLPPSREEMTKNQVSLTCLVKGFYPSDIAVEWESNGQPENNYKTTPPVLDSDGSFFLYSKLTVDKSRWQQGNVFSCSVMHEALHNHYTQKSLSLSPGK light: not shown |  | 0.00173 µg/mL | 0.00231 µg/mL | 0.00902 µg/mL | 0.076 µg/mL | 0.073 µg/mL
